Source: patent US20150018278

Experiments:
[1] = test system: chicken transcription factor E2F4
[2] = test system: constitutively active form of chicken E2F4 (Thr261Glu/Thr263Glu)
[3] = test system: negative dominant form of chicken E2F4 (Thr261Ala/Thr263Ala)
Chain of negative dominant form of chicken E2F4 (Thr261Ala/Thr263Ala) (chain, as listed by the source T261A T263A): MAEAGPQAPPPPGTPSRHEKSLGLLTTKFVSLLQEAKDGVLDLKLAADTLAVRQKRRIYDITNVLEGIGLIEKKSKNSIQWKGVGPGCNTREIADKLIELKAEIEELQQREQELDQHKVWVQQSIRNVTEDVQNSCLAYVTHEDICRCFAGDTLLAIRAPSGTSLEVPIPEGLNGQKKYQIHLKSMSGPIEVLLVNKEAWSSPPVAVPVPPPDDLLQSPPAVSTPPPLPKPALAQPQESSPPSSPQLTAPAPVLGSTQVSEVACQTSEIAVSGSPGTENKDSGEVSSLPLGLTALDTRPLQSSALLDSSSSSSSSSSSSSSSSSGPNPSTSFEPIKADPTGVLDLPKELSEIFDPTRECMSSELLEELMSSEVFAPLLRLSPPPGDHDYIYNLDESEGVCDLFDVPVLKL

Chain of constitutively active form of chicken E2F4 (Thr261Glu/Thr263Glu) (chain, as listed by the source T261E T263E): as the sequence (chain, as listed by the source T261A T263A) above, with A249E, A251E counted along it
Chain of chicken transcription factor E2F4 (chain, as listed by the source): as the sequence (chain, as listed by the source T261A T263A) above, with A249T, A251T counted along it

p38^MAPK
phosphorylation on threonine residues of E2F4 (Western blot with anti-phosphoThr antibodies in extracts immunoprecipitated with anti-E2F4 antibodies) [1]: The presence of NGF can be seen to involve an increase in phosphorylation on threonine residues, while the presence of p38^MAPK inhibitor inhibits such phosphorylation. | incorporation of BrdU [2]: The incorporation of BrdU increases significantly in cells transfected with the constitutively active form of E2F4 (E2F4-CA), an effect that can be observed even in the presence of selective p38^MAPK inhibitor SB203580 (used at 5 µM) | incorporation of BrdU [3]: The expression of the negative dominant form of E2F4 (E2F4-ND) prevents the effect of 100 ng/ml NGF on the incorporation of BrdU in retinal neurogenic cultures.
